Source: the Human Domainome abundance scans (Beltran et al. 2025)
± gives the uncertainty stated by the source.

B1: MEF2-activating motif and SAP domain-containing transcriptional regulator, residues 170 to 204; numbered along this chain, Q6ZN01 (parent)
chain: LKLEELTVSELRQQLRLRGLPVSGTKSMLLERMRG

Variants of: B1
Assay: abundance fitness (aPCA) (normalised: wild type 0, dead -1); higher = more abundant; growth selection in yeast, the domain comes from the species named
Settings: Homo sapiens

Q: Which abundance fitness does the source give for LKLEELTVSELVQQLRLRGLPVSGTKSMLLERMRG [R12V] here?
A: Its abundance fitness is -0.304 ± 0.1.

Q: Which abundance fitness does the source give for LKLEELTVSELRQQLRLRGLPVSGTKSMLYERMRG [L30Y] here?
A: Its abundance fitness is -0.915 ± 0.2.

Q: For LKLEELTVSELRQQLRLRGLPVSGTKSMLAERMRG [L30A], which abundance fitness is on record?
A: The abundance fitness was -0.356 ± 0.069.

Q: For LKLEELTVSELRQQLRLRGLPVSGTKSMLVERMRG [L30V], which abundance fitness is on record?
A: The abundance fitness was -0.099 ± 0.07.

Q: For LKLEELTVSELRQQLRLRGLPVSGTKSMLCERMRG [L30C], which abundance fitness is on record?
A: Its abundance fitness is -0.197 ± 0.17.

Q: With LNLEELTVSELRQQLRLRGLPVSGTKSMLLERMRG [K2N] as the variant, how does the abundance fitness read?
A: The abundance fitness was -0.128 ± 0.17.

Q: For LELEELTVSELRQQLRLRGLPVSGTKSMLLERMRG [K2E], which abundance fitness is on record?
A: The abundance fitness was 0.007 ± 0.067.

Q: For LPLEELTVSELRQQLRLRGLPVSGTKSMLLERMRG [K2P], which abundance fitness is on record?
A: The abundance fitness was -0.572 ± 0.12.

Q: For LKLEELTVSELRQQLRLRALPVSGTKSMLLERMRG [G19A], which abundance fitness is on record?
A: Its abundance fitness is -0.746 ± 0.08.

Q: Which abundance fitness does the source give for LKLEELTVSELRQQLRLRFLPVSGTKSMLLERMRG [G19F] here?
A: Its abundance fitness is -0.639 ± 0.14.

Q: For LKLEELTVSELRQFLRLRGLPVSGTKSMLLERMRG [Q14F], which abundance fitness is on record?
A: Its abundance fitness is -0.401 ± 0.13.

Q: With LKLEELTVSELRQPLRLRGLPVSGTKSMLLERMRG [Q14P] as the variant, how does the abundance fitness read?
A: Its abundance fitness is -0.863 ± 0.097.

Q: With LKLEELTVSELRQMLRLRGLPVSGTKSMLLERMRG [Q14M] as the variant, how does the abundance fitness read?
A: The abundance fitness was 0.023 ± 0.063.

Q: For LKLEELTVSELRQQLRLRGLPVSGTKSMLLERMFG [R34F], which abundance fitness is on record?
A: The abundance fitness was -0.516 ± 0.099.

Q: Which abundance fitness does the source give for LKLEELTVSELRQQLRLRGLPVSGTKSMLLERMSG [R34S] here?
A: The abundance fitness was -0.064 ± 0.089.

Q: With LKLEELTVSELRQQLRLRGLPVSGTKSMLLERMLG [R34L] as the variant, how does the abundance fitness read?
A: The abundance fitness was -0.068 ± 0.15.

Q: For LKLEELTVSELRQQLRLRGLPYSGTKSMLLERMRG [V22Y], which abundance fitness is on record?
A: Its abundance fitness is 0.298 ± 0.11.

Q: For LKLEELTVSELRQQLRLRGLPTSGTKSMLLERMRG [V22T], which abundance fitness is on record?
A: The abundance fitness was 0.152 ± 0.097.

Q: For LKLEELTVSELRQQLRLRGLPVSGTKSMLLETMRG [R32T], which abundance fitness is on record?
A: The abundance fitness was 0 ± 0.1.

Q: For LKLEELTVSELRQQLRLRGLPVSGTKSMLLEKMRG [R32K], which abundance fitness is on record?
A: The abundance fitness was -0.545 ± 0.16.

Q: With LKLELLTVSELRQQLRLRGLPVSGTKSMLLERMRG [E5L] as the variant, how does the abundance fitness read?
A: Its abundance fitness is -0.548 ± 0.1.

Q: For LKLETLTVSELRQQLRLRGLPVSGTKSMLLERMRG [E5T], which abundance fitness is on record?
A: Its abundance fitness is -0.271 ± 0.11.

Q: With LKLEELTVSELRQQLRLRGLPVSGTKSMTLERMRG [L29T] as the variant, how does the abundance fitness read?
A: Its abundance fitness is -0.297 ± 0.08.

Q: With LKLEELTVSELRQQLRLRGLPVSGTKSMFLERMRG [L29F] as the variant, how does the abundance fitness read?
A: The abundance fitness was -0.589 ± 0.14.

Q: For LKLEELTVSELRQQLRLRGLPVSGTKSMELERMRG [L29E], which abundance fitness is on record?
A: The abundance fitness was -0.22 ± 0.14.

Q: Which abundance fitness does the source give for LKLEELTVSELRQQLRLRGLPVSGTKSMQLERMRG [L29Q] here?
A: The abundance fitness was -0.486 ± 0.085.

Q: With LKLEELTVYELRQQLRLRGLPVSGTKSMLLERMRG [S9Y] as the variant, how does the abundance fitness read?
A: The abundance fitness was -0.345 ± 0.082.

Q: For LKLEELTVWELRQQLRLRGLPVSGTKSMLLERMRG [S9W], which abundance fitness is on record?
A: The abundance fitness was -0.142 ± 0.06.

Q: With LKLEELTVSELRQQLRLRGLPVSGTKSMLLERQRG [M33Q] as the variant, how does the abundance fitness read?
A: Its abundance fitness is 0.04 ± 0.25.

Q: With LKLEELTVSELRQQLRLRGLPVSGTKSMLLERLRG [M33L] as the variant, how does the abundance fitness read?
A: Its abundance fitness is 0.206 ± 0.1.

Q: Which abundance fitness does the source give for LKLEELTVSELRQQLRLRGLPVSGTKSMLLERARG [M33A] here?
A: The abundance fitness was -0.161 ± 0.08.

Q: Which abundance fitness does the source give for LKLEELTVSELRQQLRLRGLPVSGTKSMLLERRRG [M33R] here?
A: The abundance fitness was -0.66 ± 0.084.

Q: With LKLEELTNSELRQQLRLRGLPVSGTKSMLLERMRG [V8N] as the variant, how does the abundance fitness read?
A: The abundance fitness was -0.387 ± 0.14.

Q: For LKLEELTVSELRQQLRLSGLPVSGTKSMLLERMRG [R18S], which abundance fitness is on record?
A: The abundance fitness was -0.206 ± 0.24.

Q: With LKLEELTVSELRCQLRLRGLPVSGTKSMLLERMRG [Q13C] as the variant, how does the abundance fitness read?
A: The abundance fitness was -0.163 ± 0.1.

Q: With LKLEELTVSELRHQLRLRGLPVSGTKSMLLERMRG [Q13H] as the variant, how does the abundance fitness read?
A: The abundance fitness was 0.054 ± 0.16.

Q: Which abundance fitness does the source give for LKLEELTVSELRKQLRLRGLPVSGTKSMLLERMRG [Q13K] here?
A: The abundance fitness was 0.015 ± 0.079.

Q: For LKLEELTVSELRSQLRLRGLPVSGTKSMLLERMRG [Q13S], which abundance fitness is on record?
A: Its abundance fitness is -0.203 ± 0.074.

Q: Which abundance fitness does the source give for LKLEELTVSALRQQLRLRGLPVSGTKSMLLERMRG [E10A] here?
A: The abundance fitness was -0.425 ± 0.1.

Q: Which abundance fitness does the source give for LKLEELTVSSLRQQLRLRGLPVSGTKSMLLERMRG [E10S] here?
A: The abundance fitness was -0.454 ± 0.072.

Q: Which abundance fitness does the source give for LKLEELEVSELRQQLRLRGLPVSGTKSMLLERMRG [T7E] here?
A: Its abundance fitness is -0.347 ± 0.072.

Q: Which abundance fitness does the source give for LKLEELQVSELRQQLRLRGLPVSGTKSMLLERMRG [T7Q] here?
A: Its abundance fitness is -0.336 ± 0.07.

Q: For LKLEELSVSELRQQLRLRGLPVSGTKSMLLERMRG [T7S], which abundance fitness is on record?
A: Its abundance fitness is -0.071 ± 0.065.

Q: Which abundance fitness does the source give for LKLEELTVSELRQQDRLRGLPVSGTKSMLLERMRG [L15D] here?
A: The abundance fitness was -0.599 ± 0.14.

Q: With LKLEELTVSELRQQLRLRGLPVSKTKSMLLERMRG [G24K] as the variant, how does the abundance fitness read?
A: Its abundance fitness is -1.25 ± 0.2.

Q: Which abundance fitness does the source give for LKLEELTVSELRQQLRLRGLPVQGTKSMLLERMRG [S23Q] here?
A: Its abundance fitness is -0.147 ± 0.11.

Q: For LKLEELTVSELRQQLRLRGLPVKGTKSMLLERMRG [S23K], which abundance fitness is on record?
A: Its abundance fitness is -0.198 ± 0.075.

Q: Which abundance fitness does the source give for LKLEEYTVSELRQQLRLRGLPVSGTKSMLLERMRG [L6Y] here?
A: Its abundance fitness is -0.384 ± 0.12.

Q: Which abundance fitness does the source give for LKLEECTVSELRQQLRLRGLPVSGTKSMLLERMRG [L6C] here?
A: The abundance fitness was -0.299 ± 0.19.

Q: Which abundance fitness does the source give for LKLEEHTVSELRQQLRLRGLPVSGTKSMLLERMRG [L6H] here?
A: The abundance fitness was -0.434 ± 0.11.

Q: With LKLEELTVSELRQQLFLRGLPVSGTKSMLLERMRG [R16F] as the variant, how does the abundance fitness read?
A: Its abundance fitness is -0.086 ± 0.26.

Q: Which abundance fitness does the source give for LKLEELTVSELRQQLKLRGLPVSGTKSMLLERMRG [R16K] here?
A: The abundance fitness was 0.284 ± 0.14.

Q: Which abundance fitness does the source give for LKKEELTVSELRQQLRLRGLPVSGTKSMLLERMRG [L3K] here?
A: Its abundance fitness is 0.017 ± 0.11.

Q: Which abundance fitness does the source give for LKFEELTVSELRQQLRLRGLPVSGTKSMLLERMRG [L3F] here?
A: Its abundance fitness is 0.065 ± 0.16.

Q: With LKLEELTVSELRQQLRLRGLPVSGTKSMLLERMRW [G35W] as the variant, how does the abundance fitness read?
A: The abundance fitness was -0.416 ± 0.13.

Q: For LKLEELTVSELRQQLRLRGLPVSGTESMLLERMRG [K26E], which abundance fitness is on record?
A: The abundance fitness was -0.379 ± 0.17.

Q: With LKLEELTVSEFRQQLRLRGLPVSGTKSMLLERMRG [L11F] as the variant, how does the abundance fitness read?
A: The abundance fitness was -1.08 ± 0.34.

Q: For LKLEELTVSEQRQQLRLRGLPVSGTKSMLLERMRG [L11Q], which abundance fitness is on record?
A: The abundance fitness was -0.568 ± 0.1.

Q: Which abundance fitness does the source give for LKLEELTVSEPRQQLRLRGLPVSGTKSMLLERMRG [L11P] here?
A: The abundance fitness was -0.64 ± 0.12.

Q: With LKLEELTVSEHRQQLRLRGLPVSGTKSMLLERMRG [L11H] as the variant, how does the abundance fitness read?
A: The abundance fitness was -0.811 ± 0.16.

Q: For LKLEELTVSELRQQLRLRGAPVSGTKSMLLERMRG [L20A], which abundance fitness is on record?
A: Its abundance fitness is -0.296 ± 0.075.

Q: Which abundance fitness does the source give for LKLDELTVSELRQQLRLRGLPVSGTKSMLLERMRG [E4D] here?
A: Its abundance fitness is -0.035 ± 0.11.

Q: For LKLTELTVSELRQQLRLRGLPVSGTKSMLLERMRG [E4T], which abundance fitness is on record?
A: Its abundance fitness is -0.171 ± 0.061.

Q: For LKLGELTVSELRQQLRLRGLPVSGTKSMLLERMRG [E4G], which abundance fitness is on record?
A: Its abundance fitness is -0.574 ± 0.055.

Q: With LKLEELTVSELRQQLRLRGLPVSGTKSCLLERMRG [M28C] as the variant, how does the abundance fitness read?
A: Its abundance fitness is -0.393 ± 0.25.

Q: Which abundance fitness does the source give for LKLEELTVSELRQQLRLRGLPVSGTKSVLLERMRG [M28V] here?
A: The abundance fitness was 0.05 ± 0.057.

Q: Which abundance fitness does the source give for LKLEELTVSELRQQLRLRGLPVSGTKSMLLPRMRG [E31P] here?
A: Its abundance fitness is -0.992 ± 0.42.

Q: For LKLEELTVSELRQQLRLRGLPVSGTKSMLLLRMRG [E31L], which abundance fitness is on record?
A: Its abundance fitness is -0.503 ± 0.072.

Q: For LKLEELTVSELRQQLRLRGLPVSGTKSMLLMRMRG [E31M], which abundance fitness is on record?
A: The abundance fitness was -0.343 ± 0.13.

Q: For LKLEELTVSELRQQLRLRGLPVSGTKPMLLERMRG [S27P], which abundance fitness is on record?
A: The abundance fitness was -0.19 ± 0.12.

Q: For LKLEELTVSELRQQLRLRGLPVSGTKDMLLERMRG [S27D], which abundance fitness is on record?
A: Its abundance fitness is 0.069 ± 0.065.
